Measurements published in PMC8147241, “Trimerization of the N-Terminal Tail of Zika Virus NS4A Protein: A Potential In Vitro Antiviral Screening Assay” (Membranes, 2021).

B1: full-length ZIKV NS4A protein (1–127) (natural protein)
chain: GAALGVMEALGTLPGHMTERFQEAIDNLAVLMRAETGSRPYKAAAAQLPETLETIMLLGLLGTVSLGIFFVLMRNKGIGKMGFGMVTLGASAWLMWLSEIEPARIACVLIVVFLLLVVLIPEPEKQR
notes: Zika virus NS4A protein, strain MR-766, full length, residues 1-127 of NS4A; numbers count on: the mature NS4A protein (127 residues); Vector pNIC28-Bsa4; a TEV protease cleavage site stands between the His6 tag and the protein; No cleavage is described; also called full-length NS4A; source: E. coli BL21 (DE3) Rosetta T1R, purified (Ni-charged IMAC and SEC in 4 mM n-decyl-β-D-maltoside)

What was measured:
[1] = biological target: ZIKV NS4A N-terminal peptide (4–58) (Zika virus (strain MR-766)); assay: static light scattering; Debye plot of KC/Rθ against protein concentration, Zetasizer Nano-ZS, 25 °C; aqueous solution without detergents or liposomes; n = 5 independent samples per concentration
[2] = biological target: the molecule itself; assay: SEC; Superdex 200 Increase 10/300 GL, 20 mM Tris-HCl, 300 mM NaCl, pH 8, with 4 mM n-decyl-β-D-maltoside

Molecule | stoichiometry N [1] | binding result [2]
ZIKV NS4A N-terminal peptide (4–58) (domain or fragment) | 3 | –
B1 | – | binds
